The source of these data is the RNAGym collection of RNA variant scans (doi:10.7554/elife.90254).

The labels stand for the following.
B1: LINE1-full (parent)
chain: UACGUAGGUGGUUUUCCCCUGAUAGUGCUAAGGGGGCCUGGAAGUUUGGACUGGGCAGAGCUCAACACAGCGUGGCAAAGUGGCUGUGGCUAGACUGCCUCUCUGGAUUCCUCGUCACUCAGCAGGGCAUCUCUGAGAGAAAUGCC

Variants of B1 are the subject of the series. The series is described as follows: self-cleavage, relative activity (ratio to wild type); higher = more cleavage; in vitro, sequencing; the parent is a self-cleaving ribozyme.
Regarding U45C A121G, the self-cleavage stood at 1.71. For U45C A121U, the self-cleavage was 1.13. With G44C U91C, the self-cleavage was found to be 0.14. Then U45A C51G, with 1.44; and U45C A69U, with 0.03.

Take U45C A69G: the self-cleavage was 0.31. In the case of U46C G93A it was 0.07; in that of U45A U109C, 1.4. Consider U45C G97A, for which the self-cleavage came to 0.07. In the case of A43U G49A, the self-cleavage is 1.34. For the variant U46C G48C, the self-cleavage worked out at 1.2. For U46C G48U, the self-cleavage stood at 1.61.

Consider U45C U143C, for which the self-cleavage came out at 1.7.

On to U45C U143A, for which the self-cleavage came to 1.39.

In the case of U45C G80A, the self-cleavage amounted to 2.16. In the case of U46C A78U it was 1.85; in that of U46C C66U, 0.02; in that of U46A U47A, 1.09. Then U46A U47C, with 1.13. In the case of A43U U73A, the self-cleavage came to 0.93. In the case of A43U U73C, the self-cleavage stood at 1.79. U45G A136G: the self-cleavage came to 0.94. As for U45A U100C, the self-cleavage was 1.05. Regarding U45C A140U, the self-cleavage amounted to 1.05. Turning to U46A U130G, the self-cleavage was 1.39. In the case of A43G U108C it was 1.56; in that of A43U A65G, 0.02. U46A G137A: the self-cleavage is 0.98. U46C A64G: the self-cleavage is 0.38. Consider G44A A59G, for which the self-cleavage came out at 0.03. In the case of U45A A124U it was 1.39. As to A43U G135U, the self-cleavage was 1.43. In the case of A43U A124G, the self-cleavage turned out to be 0.71. As to U46C A92U, the self-cleavage was 0.76. Then U46A G75A, with 0.9; and U46A G75U, with 0.84; and U45C U104C, with 1.42. Then U46C A142G, with 1.35; and A43U C103U, with 1.09. Take U46C A67U: the self-cleavage was 0.12.

U45C G82A: the self-cleavage was 1.86. Consider A43U A142G, for which the self-cleavage was 1.24.

For U46A A69U, the self-cleavage was 0.05. U46A A69G: the self-cleavage was 0.36. For the variant U46A U87C, the self-cleavage came out at 0.19. Consider U46A C68U, for which the self-cleavage was 0.07. In the case of A43U U45C it was 0.87; in that of U45G C68U, 0.12.

As for U45C C66U, the self-cleavage is 0.04. As to A43U C116U, the self-cleavage is 1.12.

Consider U45G A57U, for which the self-cleavage amounted to 0.18. For the variant U45C U46A, the self-cleavage was 0.74. In the case of U45C U46C, the self-cleavage was 1.84. Consider U45C U46G, for which the self-cleavage was 1.37. With U45C G58A, the self-cleavage stood at 0.04.

As to G44A A129U, the self-cleavage was found to be 1.43. On to U46A A121U, for which the self-cleavage was 1.43.

Regarding U45A U47A, the self-cleavage is 1.17. In the case of U45A U47C, the self-cleavage came out at 1.45. Take U45C A117G: the self-cleavage is 0. In the case of U45C A50G it was 1. For the variant U45C A50U, the self-cleavage came to 1.02. For the variant U46C A107G, the self-cleavage is 1.06. With U46C A107U, the self-cleavage was 1.53. As to U46C A138C, the self-cleavage stood at 0. For the variant U46C A138G, the self-cleavage stood at 1.29. As for A43G U104G, the self-cleavage came to 1.78. On to A43G U104C, for which the self-cleavage stood at 1.68. With U45C U62C, the self-cleavage stood at 0.07. In the case of U46C A121U it was 1.25; in that of G44A U134G, 1.02. Then U45C A65G, with 0.04; and U45C A65U, with 0.22; and U45C C131A, with 1.67.

For U46C A136U, the self-cleavage came to 1.44. Regarding U45G U119G, the self-cleavage stood at 0.44. U45C G89A: the self-cleavage came to 0.01. Then U45C A94U, with 0.33; and U46C A50U, with 1.26; and A43G U91C, with 0.37.

Turning to A43U U115C, the self-cleavage was determined as 1.21. Take U45C U102C: the self-cleavage is 1.55. In the case of U45G A77U, the self-cleavage came out at 1.15.

Regarding A43U U62C, the self-cleavage came out at 0.06.

Regarding U45A A57C, the self-cleavage amounted to 0.14.

As to U45C A79U, the self-cleavage amounted to 1.92.

Take U45C A79G: the self-cleavage stood at 1.15.

Turning to A43U G72A, the self-cleavage amounted to 1.38. For U45C G72A, the self-cleavage was 1.25. U45A U115C: the self-cleavage turned out to be 1.51.

U45A U115G: the self-cleavage stood at 1.17. On to A43U A69G, for which the self-cleavage is 0.59. As to A43U U104A, the self-cleavage came to 0.98.

With U45G C120U, the self-cleavage is 1.49. Then U46A A124G, with 0.8; and U46A A124U, with 1.11.

Take U45C A67G: the self-cleavage worked out at 1.08. Then U45C A59U, with 1.04; and U45C A59C, with 0.79.

For U45C U81C, the self-cleavage is 0.94. In the case of A43U C131A it was 1.64; in that of A43U A57G, 0.89; in that of G44A A67G, 0.37. As for U45C A129U, the self-cleavage was determined as 1.03.

Take U45C A129G: the self-cleavage was 1.4.

As to U45A G74U, the self-cleavage worked out at 1.59. As for U45G G106U, the self-cleavage worked out at 0.64.

Consider U45G G106C, for which the self-cleavage came to 0.92. In the case of U45A C63A, the self-cleavage was 0.05. U45C G106U: the self-cleavage is 1.17.

Consider U45C G106A, for which the self-cleavage turned out to be 2. Regarding U45G G97A, the self-cleavage turned out to be 0.07.

Turning to U45C C71A, the self-cleavage is 0.15. With U45C C71U, the self-cleavage amounted to 0.98. As to A43U A67G, the self-cleavage was determined as 0.56. For U46A G114A, the self-cleavage was 1.08. With U46A A136G, the self-cleavage came out at 1.48. U45C C76U: the self-cleavage was determined as 1.89. With U45A U87C, the self-cleavage came to 0.24. Then A43U U96C, with 0.1; and U46A C113U, with 1.16.

U45A C95U: the self-cleavage stood at 0.18. Then U45C A64U, with 0.29. As for A43U A121U, the self-cleavage was 0.79. Then U45C C128U, with 1.32; and G44A U100A, with 0.85. For the variant U45C G127A, the self-cleavage came to 0.55. In the case of U45C A136G it was 1.5; in that of U45C A136U, 1.49; in that of G44U U115A, 1.17. Regarding U45C G74U, the self-cleavage stood at 1.35. As to G44A U46C, the self-cleavage is 1.06. Take U46C A59G: the self-cleavage was found to be 0.16.

Take U45A U102G: the self-cleavage came out at 0. In the case of U45A U102A it was 1.36; in that of U45A U102C, 1.45. Consider G44U A78G, for which the self-cleavage stood at 1.68.

For the variant U45A U81C, the self-cleavage is 1.92. Consider U45G U46C, for which the self-cleavage turned out to be 1.31. Consider U45C C51U, for which the self-cleavage is 1.58. For U45C C51A, the self-cleavage stood at 0.2.

Turning to U46A U104A, the self-cleavage was determined as 0.9. As for G44A A140G, the self-cleavage is 1.34. Then U45G A121U, with 1.82; and U45G A121C, with 2.14. For the variant U45G A121G, the self-cleavage came to 0.46. Then A43G U109A, with 1.46; and A43G U109C, with 1.92; and U45G A141G, with 1.32.

With U45C G93U, the self-cleavage is 0.03. With U45A A136U, the self-cleavage was found to be 1.9. In the case of G44C U45C it was 1.02; in that of U45A G105A, 1.56; in that of U45C C68U, 0.16. Take U45A C71U: the self-cleavage came out at 0.08. In the case of U45G C113A it was 0.98; in that of U46C G139U, 1.7; in that of U45A A92C, 0.14. In the case of U45A A138G, the self-cleavage amounted to 1.32. Consider U45A A138U, for which the self-cleavage is 1.31.

As to A43U C110U, the self-cleavage came out at 0.83. Take A43U U91C: the self-cleavage worked out at 0.68.

Take U45A U130C: the self-cleavage is 1.86. As to U45C C120G, the self-cleavage worked out at 2.05. On to G44A A94G, for which the self-cleavage is 0.27. Regarding G44A A94U, the self-cleavage was determined as 0. For the variant U46C A117C, the self-cleavage turned out to be 2.44.
